Assay results as given in the RNAGym collection of RNA variant scans (doi:10.1093/nar/gkz1192).

B1: CPEB3 Ribozyme (parent)
chain: UAACAGGGGGCCACAGCAGAAGCGUUCACGUCGCAGCCCCUGUCAGAUUCUGGUGAAUCUGCGAAUUCUGCUGUAUAUCUC

Variants of: B1
Assay: self-cleavage, relative activity (ratio to wild type); higher = more cleavage; in vitro, sequencing
Procedure, shortened: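 Relative activity was defined as the cleaved/total read fraction for a variant divided by the same fraction for the unmutated ribozyme. CPEB3 self-cleaving ribozyme libraries were made by rounds of error-prone PCR, barcoded, and transcribed in vitro with T7 RNA polymerase for 5 hours at 37°C, and cleavage ran through transcription plus a 15 min DNase I step before EDTA. Illumina sequencing of template-switched reverse transcripts gave the reads, and DNA sequencing mapped the barcodes. Averages come from three batches, using variants with at least 5 reads.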

Variant | self-cleavage
G22U C59U | 0.16
C23U U74A | 0.58
C23U U74C | 0.76
C23A C34U | 0.22
G22U A35U | 0.09
C23G C62A | 0.29
C23G A75U | 0.07
C23G A75G | 0.14
G22C G55U | 0.22
C23A U48C | 0.16
G22A G63A | 0.27
G24A G52U | 0.37
G24A G52A | 0.21
C23G U48C | 0.29
G22C C29U | 0.1
G22A U49C | 0.11
C23U C39A | 0.19
C23U C39U | 0.24
C23U A75G | 0.27
C23A | 0.3
C23U | 0.35
C23G | 0.26
G24A A77U | 0.46
G24A A77G | 0.23

Variant | self-cleavage
C23U U54G | 0.31
C23U U54C | 0.16
C23U U54A | 0.31
G22A U43A | 0.38
G22A U43G | 0.09
C23G U72A | 0.04
C23G U72C | 0.13
C23U U67C | 0.28
C23U U67G | 0.38
C23U U67A | 0.16
G22U G46A | 0.17
C23A U41A | 0.35
C23A U41C | 0.34
G22A C68G | 0.11
G22A U72C | 0.23
C23G U54A | 0.26
C23G U54G | 0.26
C23G U54C | 0.28
G24A G36A | 0.15
G24A G36U | 0.1
G24A G73C | 0.4
G24A G73A | 0.14
G22U A28U | 0.17
G22U A28G | 0.17

Variant | self-cleavage
C23G U58C | 0.21
G24A C44U | 0.18
C23U U41A | 0.12
C23U U41C | 0.27
G22U A75G | 0.39
G22U A75C | 0.23
G22U A75U | 0.26
C23A C81G | 0.22
G22C U78A | 0.06
C23U C44A | 0.38
G24A G46A | 0.2
C23G U49C | 0.16
G24A C39U | 0.17
G24A G30A | 0.24
C23G A45G | 0.21
G22A U78C | 0.19
C23G U69A | 0.12
C23G U69C | 0.08
C23G U67C | 0.12
C23G U67A | 0.25
G22U U76A | 0.33
C23U G52A | 0.57
C23A C62U | 0.21
C23A U66A | 0.1

Variant | self-cleavage
G24A G53A | 0.53
C23G C29G | 0.08
C23G C29U | 0.36
G22C U67A | 0.16
G22C U67C | 0.11
C23A A64G | 0.53
C23A C44U | 0.08
C23U G61C | 0.11
C23U G61A | 0.25
C23A A45G | 0.23
C23A A45C | 0.34
G22U U66C | 0.52
G22U U66G | 0.17
G24A A56U | 0.37
G24A A56G | 0.13
G24A A45C | 0.36
G24A A45G | 0.24
G24A A45U | 0.25
C23G A57G | 0.16
G24A G63A | 0.37
G24A G63C | 0.16
C23A G52U | 0.15
G24A U25A | 0.26
G24A U25C | 0.25

Variant | self-cleavage
G24A G42A | 0.12
C23G A65U | 0.22
C23U U48C | 0.14
C23A C39U | 0.23
C23U C27U | 0.31
C23G A47G | 0.28
C23U U72C | 0.48
C23U U72A | 0.22
C23U U72G | 0.1
C23U A47G | 0.18
C23U A47U | 0.2
C23A U25C | 0.36
C23A U25A | 0.27
G24A A65G | 0.28
C23U G55A | 0.24
C23U U58A | 0.34
C23A U67A | 0.16
C23A U67C | 0.17
G22C U72C | 0.2
C23A U60C | 0.33
C23A U60A | 0.19
C23A U60G | 0.06
C23A C38U | 0.49
G24A C29G | 0.21

Variant | self-cleavage
C23G A56U | 0.4
C23G A56G | 0.23
C23A U26A | 0.49
C23U C29U | 0.21
C23U A64U | 0.16
C23U A64G | 0.26
C23U A64C | 0.09
G22U U25C | 0.2
G22C A75G | 0.13
G22C A75U | 0.24
C23A U51A | 0.37
C23A U51C | 0.27
C23G C39U | 0.08
G22A U41C | 0.37
G22A U41A | 0.19
G24A | 0.27
G22C C62U | 0.16
G22C A56G | 0.21
G22C A56U | 0.14
G22U U60A | 0.17
G22U U60C | 0.07
G22U U26A | 0.26
G22U U26C | 0.11
C23A A35G | 0.27

Variant | self-cleavage
C23A A35U | 0.31
G24A C71G | 0.09
G24A C71U | 0.36
G22A U51C | 0.2
G22A U51G | 0.17
G24A C27U | 0.3
G24A C27A | 0.18
C23U A56G | 0.31
C23U A56U | 0.15
C23U C62G | 0.09
C23A A47U | 0.47
C23A A47G | 0.41
C23U U60C | 0.15
C23U U60A | 0.26
G22C G42U | 0.11
C23A G24A | 0.13
C23G U78A | 0.32
C23G U78C | 0.28
G22U | 0.27
G22C | 0.26
G24A A35G | 0.38
G24A A35U | 0.17
C23U U66C | 0.15
